± gives the standard deviation of the averaged measurements.
Each sequence was assayed on Saccharomyces cerevisiae (assay: protein stability index of tFT-peptide fusion (C-terminal peptide) (PSI (0-1 scale)); higher = more stable (slower turnover)). Settings: genetic background: das1 deletion; temperature: 30 C.
Experimental: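 MPS profiling in S. cerevisiae of the tFT-X12 degron library: putative degron peptides plus stable controls, 12 aa, fused to the C-terminus of a sfGFP-mCherry timer. Cells are FACS-sorted into 8 mCherry/sfGFP bins and deep-sequenced. PSI runs from 0 (unstable) to 1 (stable). Backgrounds are wild type, das1Δ and doa10Δ at 30 °C, and wild type, das1Δ, cdc34-1 and cdc53-1 at 37 °C; 2-3 technical replicates each.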
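Further: PSI is a weighted mean of sequencing reads over stability bins, variants kept only with over 10 reads, mCherry proximal and sfGFP distal, peptide attached via GGGS linker.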

Going from SWLLLVFPLSVC to TCFVKLLPFLVL, the protein stability index rises from 0.167 ± 0.03 to 0.456 ± 0.02.

First: TCRASLRRIVVA
Second: TFRVLREIILTA
The protein stability index of the first is higher: 0.381 ± 0.031 for the first, 0.206 ± 0.029 for the second.

First: TPPFFDIFVVLL
Second: TPPIRCRLVRFL
The protein stability index of the first is lower: 0.463 ± 0.027 for the first, 0.626 ± 0.029 for the second.

Going from TSARPFLYSFRP to TVLPCVLLFLRG, the protein stability index falls from 0.654 ± 0.018 to 0.508 ± 0.035.

Compared with VAVFFGCCVKVG, VAVGFVLGLCVV is higher in protein stability index: 0.191 ± 0.035 for the first, 0.348 ± 0.03 for the second.

Compared with VCFLLLLPALLI, VCNQVPGVIWFC is higher in protein stability index: 0.398 ± 0.026 for the first, 0.654 ± 0.018 for the second.

Going from VCRFLVSVFSCV to VCRVAAWLGWFV, the protein stability index rises from 0.453 ± 0.02 to 0.637 ± 0.019.

Compared with VEFSLYVVFFLV, VFCPRACWEFVG is higher in protein stability index: 0.248 ± 0.029 for the first, 0.649 ± 0.021 for the second.

Compared with VFCSRSLISVVS, VFFCLCLCLFFV is higher in protein stability index: 0.208 ± 0.041 for the first, 0.341 ± 0.018 for the second.

Going from VFFGCIWSIVYN to VFGARLFLIRLV, the protein stability index rises from 0.213 ± 0.035 to 0.534 ± 0.033.

First: VFLNVLDNNRLC
Second: VFLRFVLSFFLL
The protein stability index of the first is higher: 0.662 ± 0.025 for the first, 0.526 ± 0.023 for the second.

First: VFLSLVFFFIIT
Second: VFRVLLSLFSTL
The protein stability index of the first is lower: 0.282 ± 0.035 for the first, 0.653 ± 0.018 for the second.

VFRYWCGIFCLT and VFSAGFSTISLF are within error of each other in protein stability index: 0.613 ± 0.025 for the first, 0.678 ± 0.049 for the second.

VFSWLAFGFFCS and VGELYRLRKLHV are within error of each other in protein stability index: 0.61 ± 0.022 for the first, 0.607 ± 0.02 for the second.

First: VGHVFLGVVWLV
Second: VGLRLSVIFVVI
The protein stability index of the first is higher: 0.457 ± 0.031 for the first, 0.213 ± 0.033 for the second.

Going from VGVIGWGVLGVG to VGVVGVRVLVVV, the protein stability index falls from 0.481 ± 0.011 to 0.166 ± 0.032.

Going from VIGSFVRVFGIM to VILMFELFGVRI, the protein stability index falls from 0.617 ± 0.017 to 0.355 ± 0.058.

Going from VLCHLVLYVGDK to VLDLLRHGFLWQ, the protein stability index rises from 0.383 ± 0.035 to 0.706 ± 0.024.

Compared with VLFFVLGVLVCL, VLFIKKTLMRIQ is higher in protein stability index: 0.348 ± 0.027 for the first, 0.621 ± 0.0064 for the second.

Going from VLFVLFASWFPR to VLFVVLVASGLG, the protein stability index falls from 0.375 ± 0.027 to 0.204 ± 0.032.

First: VLPQSVWILVRV
Second: VLSFWAFLFLLF
The protein stability index of the first is lower: 0.172 ± 0.024 for the first, 0.398 ± 0.023 for the second.

VLSWRAWGESGV and VMFWRGVWLSFC are within error of each other in protein stability index: 0.466 ± 0.032 for the first, 0.45 ± 0.019 for the second.

Going from VNTRIVVRMRHL to VNWGFLVLLFQL, the protein stability index falls from 0.64 ± 0.014 to 0.39 ± 0.035.

Going from VPLHPPPTVPYI to VPLVQRARLRLF, the protein stability index falls from 0.66 ± 0.015 to 0.607 ± 0.027.

VPRLFSVIVVPV and VRFRLLNVLASA are within error of each other in protein stability index: 0.39 ± 0.033 for the first, 0.395 ± 0.026 for the second.

VRGSFRRCLSIA and VRRSVGGWSKVG are within error of each other in protein stability index: 0.623 ± 0.015 for the first, 0.636 ± 0.029 for the second.

Going from VRSTFVLGRWFA to VSFHFLLLVPCC, the protein stability index falls from 0.653 ± 0.029 to 0.0609 ± 0.027.

Going from VSFHLGVIFALS to VSFLLLSYLCSF, the protein stability index falls from 0.401 ± 0.026 to 0.279 ± 0.031.

Compared with VSWDMLYFWFIQ, VSYAVIVLVFKG is lower in protein stability index: 0.603 ± 0.059 for the first, 0.234 ± 0.026 for the second.

VTVWLISRVTGL and VVCFGCLAFFLG are within error of each other in protein stability index: 0.496 ± 0.017 for the first, 0.461 ± 0.021 for the second.

VVFILLFFVFCR and VVGITIMVFIIT are within error of each other in protein stability index: 0.24 ± 0.031 for the first, 0.184 ± 0.045 for the second.

First: VVIGAVLFVVVR
Second: VVIWGMLLCGLG
The protein stability index of the first is lower: 0.157 ± 0.028 for the first, 0.353 ± 0.029 for the second.

Going from VVTICVASWSGL to VVTVCIIRLAWG, the protein stability index falls from 0.352 ± 0.017 to 0.215 ± 0.025.

VVVLRRVIEVMQ and VVVRFCLGICFC are within error of each other in protein stability index: 0.256 ± 0.03 for the first, 0.301 ± 0.022 for the second.

Compared with VWAWAVVVFVVL, VWEKGVCGRMVG is higher in protein stability index: 0.205 ± 0.02 for the first, 0.652 ± 0.021 for the second.

Going from VWSFFTSFIRYI to VWVISLCIGGGG, the protein stability index falls from 0.6542 ± 0.0065 to 0.24 ± 0.028.

VWVLLCKYVILL and VWWGVGVWLLVG are within error of each other in protein stability index: 0.237 ± 0.036 for the first, 0.242 ± 0.015 for the second.

Going from VYVVCFRLGCWV to WAFRLWWFFCLV, the protein stability index rises from 0.199 ± 0.035 to 0.437 ± 0.022.

WALPRILFLRLT and WDSCVGRRGIVA are within error of each other in protein stability index: 0.359 ± 0.043 for the first, 0.402 ± 0.035 for the second.

Same assay, conditions: genetic background: das1 deletion; temperature: 37 C

First: SWLLLVFPLSVC
Second: TCFVKLLPFLVL
The protein stability index of the first is lower: 0.231 ± 0.0058 for the first, 0.608 ± 0.024 for the second.

First: TCRASLRRIVVA
Second: TFRVLREIILTA
The protein stability index of the first is higher: 0.5813 ± 0.0056 for the first, 0.33 ± 0.023 for the second.

First: TPPFFDIFVVLL
Second: TPPIRCRLVRFL
The protein stability index of the first is lower: 0.6652 ± 0.0032 for the first, 0.7526 ± 0.00097 for the second.

Compared with TSARPFLYSFRP, TVLPCVLLFLRG is lower in protein stability index: 0.739 ± 0.0082 for the first, 0.613 ± 0.0086 for the second.

Compared with VAVFFGCCVKVG, VAVGFVLGLCVV is higher in protein stability index: 0.3258 ± 0.0018 for the first, 0.4701 ± 0.0042 for the second.

Compared with VCFLLLLPALLI, VCNQVPGVIWFC is higher in protein stability index: 0.516 ± 0.0089 for the first, 0.7556 ± 0.0068 for the second.

Compared with VCRFLVSVFSCV, VCRVAAWLGWFV is higher in protein stability index: 0.5763 ± 0.00065 for the first, 0.7292 ± 0.00075 for the second.

Going from VEFSLYVVFFLV to VFCPRACWEFVG, the protein stability index rises from 0.437 ± 0.028 to 0.7777 ± 0.0067.

First: VFCSRSLISVVS
Second: VFFCLCLCLFFV
The protein stability index of the first is lower: 0.355 ± 0.007 for the first, 0.473 ± 0.028 for the second.

Going from VFFGCIWSIVYN to VFGARLFLIRLV, the protein stability index rises from 0.41 ± 0.018 to 0.635 ± 0.023.

Going from VFLNVLDNNRLC to VFLRFVLSFFLL, the protein stability index falls from 0.74 ± 0.0031 to 0.608 ± 0.0045.

First: VFLSLVFFFIIT
Second: VFRVLLSLFSTL
The protein stability index of the first is lower: 0.43 ± 0.005 for the first, 0.738 ± 0.0053 for the second.

VFRYWCGIFCLT and VFSAGFSTISLF are the same in protein stability index: 0.789 ± 0.045 for the first, 0.789 ± 0.012 for the second.

Going from VFSWLAFGFFCS to VGELYRLRKLHV, the protein stability index rises from 0.6821 ± 0.0028 to 0.728 ± 0.015.

First: VGHVFLGVVWLV
Second: VGLRLSVIFVVI
The protein stability index of the first is higher: 0.6 ± 0.0034 for the first, 0.428 ± 0.027 for the second.

Going from VGVIGWGVLGVG to VGVVGVRVLVVV, the protein stability index falls from 0.541 ± 0.011 to 0.19025 ± 0.00017.

First: VIGSFVRVFGIM
Second: VILMFELFGVRI
The protein stability index of the first is higher: 0.728 ± 0.026 for the first, 0.4304 ± 0.0029 for the second.

Compared with VLCHLVLYVGDK, VLDLLRHGFLWQ is higher in protein stability index: 0.588 ± 0.013 for the first, 0.727 ± 0.011 for the second.

Compared with VLFFVLGVLVCL, VLFIKKTLMRIQ is higher in protein stability index: 0.471 ± 0.01 for the first, 0.66 ± 0.015 for the second.

First: VLFVLFASWFPR
Second: VLFVVLVASGLG
The protein stability index of the first is higher: 0.5458 ± 0.0053 for the first, 0.4008 ± 0.00043 for the second.

Compared with VLPQSVWILVRV, VLSFWAFLFLLF is higher in protein stability index: 0.236 ± 0.012 for the first, 0.488 ± 0.015 for the second.

Compared with VLSWRAWGESGV, VMFWRGVWLSFC is higher in protein stability index: 0.392 ± 0.014 for the first, 0.572 ± 0.03 for the second.

Compared with VNTRIVVRMRHL, VNWGFLVLLFQL is lower in protein stability index: 0.704 ± 0.02 for the first, 0.561 ± 0.018 for the second.

VPLHPPPTVPYI and VPLVQRARLRLF are within error of each other in protein stability index: 0.7244 ± 0.0069 for the first, 0.732 ± 0.026 for the second.

VPRLFSVIVVPV and VRFRLLNVLASA are within error of each other in protein stability index: 0.5519 ± 0.0049 for the first, 0.5582 ± 0.0043 for the second.

VRGSFRRCLSIA and VRRSVGGWSKVG are within error of each other in protein stability index: 0.719 ± 0.012 for the first, 0.7327 ± 0.0047 for the second.

Going from VRSTFVLGRWFA to VSFHFLLLVPCC, the protein stability index falls from 0.7495 ± 0.0021 to 0.0732 ± 0.023.

Going from VSFHLGVIFALS to VSFLLLSYLCSF, the protein stability index falls from 0.536 ± 0.0072 to 0.46 ± 0.011.

First: VSWDMLYFWFIQ
Second: VSYAVIVLVFKG
The protein stability index of the first is higher: 0.764 ± 0.033 for the first, 0.463 ± 0.018 for the second.

VTVWLISRVTGL and VVCFGCLAFFLG are within error of each other in protein stability index: 0.647 ± 0.017 for the first, 0.624 ± 0.044 for the second.

Going from VVFILLFFVFCR to VVGITIMVFIIT, the protein stability index falls from 0.371 ± 0.0061 to 0.312 ± 0.0043.

Going from VVIGAVLFVVVR to VVIWGMLLCGLG, the protein stability index rises from 0.291 ± 0.0065 to 0.539 ± 0.026.

Compared with VVTICVASWSGL, VVTVCIIRLAWG is lower in protein stability index: 0.54018 ± 4.7e-05 for the first, 0.386 ± 0.014 for the second.

VVVLRRVIEVMQ and VVVRFCLGICFC are within error of each other in protein stability index: 0.448 ± 0.013 for the first, 0.438 ± 0.021 for the second.

Going from VWAWAVVVFVVL to VWEKGVCGRMVG, the protein stability index rises from 0.379 ± 0.017 to 0.744 ± 0.037.

Going from VWSFFTSFIRYI to VWVISLCIGGGG, the protein stability index falls from 0.752 ± 0.041 to 0.405 ± 0.011.

Compared with VWVLLCKYVILL, VWWGVGVWLLVG is lower in protein stability index: 0.457 ± 0.0046 for the first, 0.369 ± 0.011 for the second.

First: VYVVCFRLGCWV
Second: WAFRLWWFFCLV
The protein stability index of the first is lower: 0.39 ± 0.0064 for the first, 0.579 ± 0.067 for the second.

Going from WALPRILFLRLT to WDSCVGRRGIVA, the protein stability index rises from 0.415 ± 0.0039 to 0.62 ± 0.025.

— the supplement of paper PMC10724198
